From paper PMC7192608

Columns and labels:
Experiment in all cases: EMSA
Rap1-DBD = molecular target: T1, Rap1-DBD (Saccharomyces cerevisiae, UniProt P11938 360-598)
T1 sequence: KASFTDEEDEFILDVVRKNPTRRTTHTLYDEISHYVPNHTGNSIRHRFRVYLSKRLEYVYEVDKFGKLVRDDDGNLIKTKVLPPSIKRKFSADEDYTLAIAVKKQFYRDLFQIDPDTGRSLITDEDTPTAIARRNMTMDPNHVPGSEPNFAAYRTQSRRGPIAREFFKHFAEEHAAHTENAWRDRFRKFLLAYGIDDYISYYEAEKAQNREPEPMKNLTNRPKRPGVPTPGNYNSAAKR

Rap1 BRCT domain = molecular target: T2, Rap1 BRCT domain (Saccharomyces cerevisiae, UniProt P11938 1-358)
T2 sequence: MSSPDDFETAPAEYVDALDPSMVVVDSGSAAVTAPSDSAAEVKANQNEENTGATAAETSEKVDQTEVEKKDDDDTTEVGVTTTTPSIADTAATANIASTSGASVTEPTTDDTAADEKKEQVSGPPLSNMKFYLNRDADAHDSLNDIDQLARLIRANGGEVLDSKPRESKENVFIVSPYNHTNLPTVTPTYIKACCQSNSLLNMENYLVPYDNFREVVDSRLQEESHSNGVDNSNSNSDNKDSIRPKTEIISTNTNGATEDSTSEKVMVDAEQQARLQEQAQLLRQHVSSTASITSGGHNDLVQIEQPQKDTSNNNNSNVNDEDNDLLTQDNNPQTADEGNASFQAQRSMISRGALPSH

[1] = molecular target: T3, Rap1 RCT (C-terminal domain) (Saccharomyces cerevisiae, UniProt P11938 600-827)
T3 sequence: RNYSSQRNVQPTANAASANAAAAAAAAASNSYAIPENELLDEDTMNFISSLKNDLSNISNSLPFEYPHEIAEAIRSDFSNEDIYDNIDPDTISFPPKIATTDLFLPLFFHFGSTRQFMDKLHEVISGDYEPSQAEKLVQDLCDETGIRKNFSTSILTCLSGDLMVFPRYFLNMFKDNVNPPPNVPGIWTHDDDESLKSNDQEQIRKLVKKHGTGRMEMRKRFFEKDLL

TGGGTGTGTGGGTGTGTGGGTGTGTGGG (structured_DNA) [4-G3 no tail]
Kd (Rap1-DBD): 22 nM

AATTCTGGGTGTGTGGGTGTGTGGGTGTGTGGGTGTGG (structured_DNA) [4-G3]
binding result (Rap1 BRCT domain): no binding
binding result [1]: no binding
Kd (Rap1-DBD): 28 nM

TTGGGTGGGTGGGTGGGTT (structured_DNA) [T-loops]
Kd (Rap1-DBD): 45 nM
